Laboratory results as given in the supplement of paper PMC5998384.

What was measured:
[1] = tested on: HeLa Kyoto; assay: solubility in G1/S (NP-40 vs SDS abundance) (log2 ratio); higher = more soluble; settings: cell cycle stage: G1/S
[2] = tested on: HeLa Kyoto; assay: melting temperature (median over replicates), in situ; higher = more thermally stable
[3] = tested on: HeLa Kyoto; assay: solubility change mitosis vs G1/S (difference of NP-40 vs SDS log2 ratios) (log2 ratio difference); higher = more soluble in mitosis
[4] = tested on: HeLa Kyoto; assay: thermal stability score vs G1/S (z-score of summed log2 fold changes over temperatures); higher = more thermally stable than in G1/S
[5] = cell cycle stage: early G1 (4.5 h after nocodazole release)
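For melting temperature (median over replicates), in situ in this document: HeLa Kyoto cells synchronized by double thymidine or nocodazole block, proteins quantified by TMT10plex mass spectrometry, three independent biological replicates.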
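For solubility change mitosis vs G1/S (difference of NP-40 vs SDS log2 ratios) in this document: synchronized HeLa Kyoto cells (double thymidine block for G1/S, nocodazole release for mitosis), protein amounts in NP-40 versus SDS lysates quantified by mass spectrometry, three biological replicates.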
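For solubility in G1/S (NP-40 vs SDS abundance) in this document: HeLa Kyoto cells arrested at G1/S by double thymidine block, proteins quantified by TMT10plex mass spectrometry in mild NP-40 versus SDS extracts, three biological replicates.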
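For thermal stability score vs G1/S (z-score of summed log2 fold changes over temperatures) in this document: synchronized HeLa Kyoto cells, proteins quantified by TMT10plex mass spectrometry, three biological replicates, mitosis taken 0.5 h after nocodazole release, G1/S directly after double thymidine block.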

“MIPVTELRYFADTQPAYRILKPWWDVFTDYISIVMLMIAVFGGTLQVTQDKMICLPCKWVTKDSCNDSFRGWAAPGPEPTYPNSTILPTPDTGPTGIKYDLDRHQYNYVDAVCYENRLHWFAKYFPYLVLLHTLIFLACSNFWFKFPRTSSKLEHFVSILLKCFDSPWTTRALSETVVEESDPKPAFSKMNGSMDKKSSTVSEDVEATVPMLQRTKSRIEQGIVDRSETGVLDKKEGEQAKALFEKVKKFRTHVEEGDIVYRLYMRQTIIKVIKFILIICYTVYYVHNIKFDVDCTVDIESLTGYRTYRCAHPLATLFKILASFYISLVIFYGLICMYTLWWMLRRSLKKYSFESIREESSYSDIPDVKNDFAFMLHLIDQYDPLYSKRFAVFLSEVSENKLRQLNLNNEWTLDKLRQRLTKNAQDKLELHLFMLSGIPDTVFDLVELEVLKLELIPDVTIPPSIAQLTGLKELWLYHTAAKIEAPALAFLRENLRALHIKFTDIKEIPLWIYSLKTLEELHLTGNLSAENNRYIVIDGLRELKRLKVLRLKSNLSKLPQVVTDVGVHLQKLSINNEGTKLIVLNSLKKMANLTELELIRCDLERIPHSIFSLHNLQEIDLKDNNLKTIEEIISFQHLHRLTCLKLWYNHIAYIPIQIGNLTNLERLYLNRNKIEKIPTQLFYCRKLRYLDLSHNNLTFLPADIGLLQNLQNLAITANRIETLPPELFQCRKLRALHLGNNVLQSLPSRVGELTNLTQIELRGNRLECLPVELGECPLLKRSGLVVEEDLFNTLPPEVKERLWRADKEQA [LRRC8A]” was tested, and the “solubility in G1/S (log2)” value [1] was -0.294, the melting temperature ([2]; cell cycle stage: G1/S) was 54 °C and the melting temperature ([2]; cell cycle stage: mitosis) was 52.9 °C. For the same sequence, the “solubility change mitosis (log2)” value [3] was 0.00706, the thermal stability score [4, 5] was -0.642 and the thermal stability score ([4]; cell cycle stage: mitosis) was -0.308.

For “MISAAQLLDELMGRDRNLAPDEKRSNVRWDHESVCKYYLCGFCPAELFTNTRSDLGPCEKIHDENLRKQYEKSSRFMKVGYERDFLRYLQSLLAEVERRIRRGHARLALSQNQQSSGAAGPTGKNEEKIQVLTDKIDVLLQQIEELGSEGKVEEAQGMMKLVEQLKEERELLRSTTSTIESFAAQEKQMEVCEVCGAFLIVGDAQSRVDDHLMGKQHMGYAKIKATVEELKEKLRKRTEEPDRDERLKKEKQEREEREKEREREREERERKRRREEEEREKERARDRERRKRSRSRSRHSSRTSDRRCSRSRDHKRSRSRERRRSRSRDRRRSRSHDRSERKHRSRSRDRRRSKSRDRKSYKHRSKSRDREQDRKSKEKEKRGSDDKKSSVKSGSREKQSEDTNTESKESDTKNEVNGTSEDIKSEGDTQSN [LUC7L3]”, the “solubility in G1/S (log2)” value [1] was -0.95, the melting temperature ([2]; cell cycle stage: G1/S) was 50.1 °C and the melting temperature ([2]; cell cycle stage: mitosis) was 50.8 °C. The “solubility change mitosis (log2)” value [3] was 0.0899, the thermal stability score [4, 5] was 0.00947 and the thermal stability score ([4]; cell cycle stage: mitosis) was 2.68.

For “MKAIKKSLTEEEYLYLDFSHQTEGCIFPLHTSVTLFLLSYCDCKIFKICLVVTKEVSRDSSLLRDDLIQDVEIQIISRQELPPIVQNCCLPAVVERSDNFCRAGLAVVLRHIIQKSYEADPLKKELLELLGFKKTCLKACAEVSQWTRLCELTIPLAIENFLRESSDQPPTIPVEILQLEKKLSEPVRVHNDDKLRRQKLKQQKADGVGPPLTKGKAKSKVHTQETSEGLDSSSKSLELKVAFSKLTVQEEPATTNREPSHIRKAKASDLPPLEHVFAEGLYFTLADIVLLPCIHHFLVIISRKFSEKLVEFPLLASWYQRIQEVPGVKTAASKCGIQFLHLPKLLTTSTEQHPNLCEVPGVEEQSDPLFIGGPRPTMAKLMEKGIEVMFSPHPCPTWTLDWNVLPAAVSPKEGKMSSDRALRKQQQLNNLVYVVTNQAKPGDRIVDFCSGGGHVGIVLAHMLPSCQVTLIENKELSLIRAKKRSDELGLSNIWFIQANMEYFTGMFNIGVALHACGVATDMVIEHCIKTRASFVTCPCCYGFIQNTSKFNFPKSEQFKKTLSYKEHMILCRFADQTAVQLPPQRRLIGKQCMCLVDLDRARAAEECGYSVQVISMEPESCSPKNNMIVGVPI [GSTCD]”, the “solubility in G1/S (log2)” value [1] was -0.0129, the melting temperature ([2]; cell cycle stage: G1/S) was 51.7 °C and the melting temperature ([2]; cell cycle stage: mitosis) was 53.4 °C. The “solubility change mitosis (log2)” value [3] was -0.116, the thermal stability score [4, 5] was -0.282 and the thermal stability score ([4]; cell cycle stage: mitosis) was -1.67.

“MKCVFVTVGTTSFDDLIACVSAPDSLQKIESLGYNRLILQIGRGTVVPEPFSTESFTLDVYRYKDSLKEDIQKADLVISHAGAGSCLETLEKGKPLVVVINEKLMNNHQLELAKQLHKEGHLFYCTCRVLTCPGQAKSIASAPGKCQDSAALTSTAFSGLDFGLLSGYLHKQALVTATHPTCTLLFPSCHAFFPLPLTPTLYKMHKGWKNYCSQKSLNEASMDEYLGSLGLFRKLTAKDASCLFRAISEQLFCSQVHHLEIRKACVSYMRENQQTFESYVEGSFEKYLERLGDPKESAGQLEIRALSLIYNRDFILYRFPGKPPTYVTDNGYEDKILLCYSSSGHYDSVYSKQFQSSAAVCQAVLYEILYKDVFVVDEEELKTAIKLFRSGSKKNRNNAVTGSEDAHTDYKSSNQNRMEEWGACYNAENIPEGYNKGTEETKSPENPSKMPFPYKVLKALDPEIYRNVEFDVWLDSRKELQKSDYMEYAGRQYYLGDKCQVCLESEGRYYNAHIQEVGNENNSVTVFIEELAEKHVVPLANLKPVTQVMSVPAWNAMPSRKGRGYQKMPGGYVPEIVISEMDIKQQKKMFKKIRGKEVYMTMAYGKGDPLLPPRLQHSMHYGHDPPMHYSQTAGNVMSNEHFHPQHPSPRQGRGYGMPRNSSRFINRHNMPGPKVDFYPGPGKRCCQSYDNFSYRSRSFRRSHRQMSCVNKESQYGFTPGNGQMPRGLEETITFYEVEEGDETAYPTLPNHGGPSTMVPATSGYCVGRRGHSSGKQTLNLEEGNGQSENGRYHEEYLYRAEPDYETSGVYSTTASTANLSLQDRKSCSMSPQDTVTSYNYPQKMMGNIAAVAASCANNVPAPVLSNGAAANQAISTTSVSSQNAIQPLFVSPPTHGRPVIASPSYPCHSAIPHAGASLPPPPPPPPPPPPPPPPPPPPPPPPPPPALDVGETSNLQPPPPLPPPPYSCDPSGSDLPQDTKVLQYYFNLGLQCYYHSYWHSMVYVPQMQQQLHVENYPVYTEPPLVDQTVPQCYSEVRREDGIQAEASANDTFPNADSSSVPHGAVYYPVMSDPYGQPPLPGFDSCLPVVPDYSCVPPWHPVGTAYGGSSQIHGAINPGPIGCIAPSPPASHYVPQGM [ALG13]” was tested, and the “solubility in G1/S (log2)” value [1] was 0.392, the melting temperature ([2]; cell cycle stage: G1/S) was 53.4 °C and the melting temperature ([2]; cell cycle stage: mitosis) was 52.2 °C. The “solubility change mitosis (log2)” value [3] was 0.0555, the thermal stability score [4, 5] was 2.01 and the thermal stability score ([4]; cell cycle stage: mitosis) was -0.34.

For “MKDVPGFLQQSQNSGPGQPAVWHRLEELYTKKLWHQLTLQVLDFVQDPCFAQGDGLIKLYENFISEFEHRVNPLSLVEIILHVVRQMTDPNVALTFLEKTREKVKSSDEAVILCKTAIGALKLNIGDLQVTKETIEDVEEMLNNLPGVTSVHSRFYDLSSKYYQTIGNHASYYKDALRFLGCVDIKDLPVSEQQERAFTLGLAGLLGEGVFNFGELLMHPVLESLRNTDRQWLIDTLYAFNSGNVERFQTLKTAWGQQPDLAANEAQLLRKIQLLCLMEMTFTRPANHRQLTFEEIAKSAKITVNEVELLVMKALSVGLVKGSIDEVDKRVHMTWVQPRVLDLQQIKGMKDRLEFWCTDVKSMEMLVEHQAHDILT [PSMD13]”, the “solubility in G1/S (log2)” value [1] was 0.0175, the melting temperature ([2]; cell cycle stage: G1/S) was 53.2 °C and the melting temperature ([2]; cell cycle stage: mitosis) was 51.3 °C. The “solubility change mitosis (log2)” value [3] was -0.181, the thermal stability score [4, 5] was 1.44 and the thermal stability score ([4]; cell cycle stage: mitosis) was 2.56.

For “MKEEKEHRPKEKRVTLLTPAGATGSGGGTSGDSSKGEDKQDRNKEKKEALSKVVIRRLPPTLTKEQLQEHLQPMPEHDYFEFFSNDTSLYPHMYARAYINFKNQEDIILFRDRFDGYVFLDNKGQEYPAIVEFAPFQKAAKKKTKKRDTKVGTIDDDPEYRKFLESYATDNEKMTSTPETLLEEIEAKNRELIAKKTTPLLSFLKNKQRMREEKREERRRREIERKRQREEERRKWKEEEKRKRKDIEKLKKIDRIPERDKLKDEPKIKVHRFLLQAVNQKNLLKKPEKGDEKELDKREKAKKLDKENLSDERASGQSCTLPKRSDSELKDEKPKRPEDESGRDYREREREYERDQERILRERERLKRQEEERRRQKERYEKEKTFKRKEEEMKKEKDTLRDKGKKAESTESIGSSEKTEKKEEVVKRDRIRNKDRPAMQLYQPGARSRNRLCPPDDSTKSGDSAAERKQESGISHRKEGGEE [UPF3B]”, the “solubility in G1/S (log2)” value [1] was -0.279, the melting temperature ([2]; cell cycle stage: G1/S) was 50.6 °C and the melting temperature ([2]; cell cycle stage: mitosis) was 50.5 °C. For the same sequence, the “solubility change mitosis (log2)” value [3] was 0.245, the thermal stability score [4, 5] was 0.0687 and the thermal stability score ([4]; cell cycle stage: mitosis) was -0.398.
